Each block holds one binder with its values, some of them ahead of it.
Key:
4H496-bN = target: T1, 4H496-bN; experiment: two-hybrid library CCNG1;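 further: natural log of median RNA to DNA barcode read ratio; higher means stronger binding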
T1 chain: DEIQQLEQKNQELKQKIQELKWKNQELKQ

4H3632-bN = target: T2, 4H3632-bN; experiment: two-hybrid library CCNG1;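 further: natural log of median RNA to DNA barcode read ratio; higher means stronger binding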
T2 chain: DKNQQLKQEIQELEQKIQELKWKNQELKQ

P1mSN = target: T3, P1mSN; experiment: two-hybrid library CCNG1;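 further: natural log of median RNA to DNA barcode read ratio; higher means stronger binding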
T3 chain: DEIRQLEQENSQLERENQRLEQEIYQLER

P8SH = target: T4, P8SH; experiment: two-hybrid library CCNG1;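 further: natural log of median RNA to DNA barcode read ratio; higher means stronger binding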
T4 chain: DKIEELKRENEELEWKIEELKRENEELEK

O14 [1] = target: T5, O14; experiment: two-hybrid library CC0; details: mean of both orientations
T5 chain: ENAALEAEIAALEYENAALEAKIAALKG

O4 [2] = target: T6, O4; experiment: two-hybrid library CC0; details: mean of both orientations
T6 chain: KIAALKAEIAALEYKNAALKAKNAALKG

O5 [3] = target: T7, O5; experiment: two-hybrid library CC0; details: mean of both orientations
T7 chain: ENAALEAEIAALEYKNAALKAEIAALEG

O15 [4] = target: T8, O15; experiment: two-hybrid library CC0; details: mean of both orientations
T8 chain: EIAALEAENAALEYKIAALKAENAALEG

O2 [5] = target: T9, O2; experiment: two-hybrid library CC0; details: mean of both orientations
T9 chain: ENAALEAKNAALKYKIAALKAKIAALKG

O16 [6] = target: T10, O16; experiment: two-hybrid library CC0; details: mean of both orientations
T10 chain: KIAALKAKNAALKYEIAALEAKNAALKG

O8 [7] = target: T11, O8; experiment: two-hybrid library CC0; details: mean of both orientations
T11 chain: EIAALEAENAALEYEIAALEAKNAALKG

O9 [8] = target: T12, O9; experiment: two-hybrid library CC0; details: mean of both orientations
T12 chain: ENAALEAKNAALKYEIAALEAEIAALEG

O6 [9] = target: T13, O6; experiment: two-hybrid library CC0; details: mean of both orientations
T13 chain: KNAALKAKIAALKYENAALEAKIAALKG

O3 [10] = target: T14, O3; experiment: two-hybrid library CC0; details: mean of both orientations
T14 chain: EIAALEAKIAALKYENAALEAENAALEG

O7 [11] = target: T15, O7; experiment: two-hybrid library CC0; details: mean of both orientations
T15 chain: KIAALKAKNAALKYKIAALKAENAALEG

4H342-bA = target: T16, 4H342-bA; experiment: two-hybrid library CCNG1
T16 chain: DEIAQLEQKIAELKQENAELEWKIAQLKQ

4H491-bA = target: T17, 4H491-bA; experiment: two-hybrid library CCNG1
T17 chain: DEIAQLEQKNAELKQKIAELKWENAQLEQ

4H48-bA = target: T18, 4H48-bA; experiment: two-hybrid library CCNG1
T18 chain: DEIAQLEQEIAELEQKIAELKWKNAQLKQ

4H2944-bA = target: T19, 4H2944-bA; experiment: two-hybrid library CCNG1
T19 chain: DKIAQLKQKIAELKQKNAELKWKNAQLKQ

O4 [12] = target: T20, O4; experiment: two-hybrid library CCNG1
T20 chain: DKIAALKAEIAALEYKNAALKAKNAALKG

O9 [13] = target: T21, O9; experiment: two-hybrid library CCNG1
T21 chain: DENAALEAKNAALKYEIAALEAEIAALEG

O3 [14] = target: T22, O3; experiment: two-hybrid library CCNG1
T22 chain: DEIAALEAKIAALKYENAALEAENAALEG

O13 = target: T23, O13; experiment: two-hybrid library CCNG1
T23 chain: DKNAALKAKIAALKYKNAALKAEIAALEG

O2 [15] = target: T24, O2; experiment: two-hybrid library CCNG1
T24 chain: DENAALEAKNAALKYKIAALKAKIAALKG

O15 [16] = target: T25, O15; experiment: two-hybrid library CCNG1
T25 chain: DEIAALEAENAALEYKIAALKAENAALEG

O8 [17] = target: T26, O8; experiment: two-hybrid library CCNG1
T26 chain: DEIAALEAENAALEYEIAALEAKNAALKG

O7 [18] = target: T27, O7; experiment: two-hybrid library CCNG1
T27 chain: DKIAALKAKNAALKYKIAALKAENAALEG

O16 [19] = target: T28, O16; experiment: two-hybrid library CCNG1
T28 chain: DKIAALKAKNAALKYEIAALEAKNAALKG

O5 [20] = target: T29, O5; experiment: two-hybrid library CCNG1
T29 chain: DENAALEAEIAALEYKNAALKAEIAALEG

O14 [21] = target: T30, O14; experiment: two-hybrid library CCNG1
T30 chain: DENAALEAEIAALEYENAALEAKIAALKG

O6 [22] = target: T31, O6; experiment: two-hybrid library CCNG1
T31 chain: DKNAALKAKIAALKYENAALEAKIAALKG

P9A = target: T32, P9A; experiment: two-hybrid library CCNG1
T32 chain: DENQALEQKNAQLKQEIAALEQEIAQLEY

P4A = target: T33, P4A; experiment: two-hybrid library CCNG1
T33 chain: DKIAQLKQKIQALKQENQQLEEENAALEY

P3A = target: T34, P3A; experiment: two-hybrid library CCNG1
T34 chain: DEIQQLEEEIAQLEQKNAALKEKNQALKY

P7A = target: T35, P7A; experiment: two-hybrid library CCNG1
T35 chain: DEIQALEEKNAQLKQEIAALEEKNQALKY

P6A = target: T36, P6A; experiment: two-hybrid library CCNG1
T36 chain: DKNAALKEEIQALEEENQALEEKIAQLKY

P8A = target: T37, P8A; experiment: two-hybrid library CCNG1
T37 chain: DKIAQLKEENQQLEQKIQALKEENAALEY

P5A = target: T38, P5A; experiment: two-hybrid library CCNG1
T38 chain: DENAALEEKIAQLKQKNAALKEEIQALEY

4H2444-bH = target: T39, 4H2444-bH; experiment: two-hybrid library CCNG1
T39 chain: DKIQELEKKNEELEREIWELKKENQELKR

4H349-bH = target: T40, 4H349-bH; experiment: two-hybrid library CCNG1
T40 chain: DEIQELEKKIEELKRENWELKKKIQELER

4H56-bH = target: T41, 4H56-bH; experiment: two-hybrid library CCNG1
T41 chain: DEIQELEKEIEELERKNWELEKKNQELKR

4H235-bH = target: T42, 4H235-bH; experiment: two-hybrid library CCNG1
T42 chain: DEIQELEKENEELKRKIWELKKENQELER

4H2585-bH = target: T43, 4H2585-bH; experiment: two-hybrid library CCNG1
T43 chain: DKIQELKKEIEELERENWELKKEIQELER

4H796-bH = target: T44, 4H796-bH; experiment: two-hybrid library CCNG1
T44 chain: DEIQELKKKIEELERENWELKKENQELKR

4H932-bH = target: T45, 4H932-bH; experiment: two-hybrid library CCNG1
T45 chain: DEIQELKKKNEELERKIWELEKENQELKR

4H3381-bH = target: T46, 4H3381-bH; experiment: two-hybrid library CCNG1
T46 chain: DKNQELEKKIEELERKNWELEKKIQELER

4H2518-bH = target: T47, 4H2518-bH; experiment: two-hybrid library CCNG1
T47 chain: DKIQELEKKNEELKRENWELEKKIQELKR

4H2760-bH = target: T48, 4H2760-bH; experiment: two-hybrid library CCNG1
T48 chain: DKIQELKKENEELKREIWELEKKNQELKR

4H3041-bH = target: T49, 4H3041-bH; experiment: two-hybrid library CCNG1
T49 chain: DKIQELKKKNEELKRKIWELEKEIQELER

4H3297-bH = target: T50, 4H3297-bH; experiment: two-hybrid library CCNG1
T50 chain: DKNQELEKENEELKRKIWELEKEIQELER

4H264-bH = target: T51, 4H264-bH; experiment: two-hybrid library CCNG1
T51 chain: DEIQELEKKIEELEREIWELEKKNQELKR

4H730-bH = target: T52, 4H730-bH; experiment: two-hybrid library CCNG1
T52 chain: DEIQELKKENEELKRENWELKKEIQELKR

4H2859-bH = target: T53, 4H2859-bH; experiment: two-hybrid library CCNG1
T53 chain: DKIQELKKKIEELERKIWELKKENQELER

4H3364-bH = target: T54, 4H3364-bH; experiment: two-hybrid library CCNG1
T54 chain: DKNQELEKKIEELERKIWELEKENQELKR

4H949-bH = target: T55, 4H949-bH; experiment: two-hybrid library CCNG1
T55 chain: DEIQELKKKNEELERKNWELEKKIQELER

4H2931-bH = target: T56, 4H2931-bH; experiment: two-hybrid library CCNG1
T56 chain: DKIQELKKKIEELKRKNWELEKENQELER

Binder: DKNQQLKQEIQELEQKIQELKWKNQELKQ [4H3632-bN]
interaction score (4H496-bN): -0.174
interaction score (4H3632-bN): 1.05
interaction score (P1mSN): -0.649

Binder: DKIEELKRENEELEWKIEELKRENEELEK [P8SH]
interaction score (P8SH): -0.00526

Binder: ENAALEAEIAALEYENAALEAKIAALKG
interaction score (O14 [1]): -2.52
interaction score (O4 [2]): -2.52
interaction score (O5 [3]): -0.24
interaction score (O15 [4]): -2.74
interaction score (O2 [5]): -2.38
interaction score (O16 [6]): 0.961
interaction score (O8 [7]): -2.58
interaction score (O9 [8]): -2.64
interaction score (O6 [9]): 0.177
interaction score (O3 [10]): -2.51
interaction score (O7 [11]): -1.03

Binder: DKNAALKAKIAALKYKNAALKAEIAALEG [O13]
interaction score (O4 [12]): -2.24
interaction score (O9 [13]): -2.39
interaction score (O3 [14]): -2.26
interaction score (O13): -2.48
interaction score (O2 [15]): -2.42
interaction score (O15 [16]): 1.46
interaction score (O8 [17]): -1.26
interaction score (O7 [18]): -2.53
interaction score (O16 [19]): -2.61
interaction score (O5 [20]): -1.38
interaction score (O14 [21]): 1.68
interaction score (O6 [22]): -1.32

Now from value to binder:

interaction score (4H342-bA): 1.77
interaction score (4H491-bA): -0.569
interaction score (4H48-bA): -1.05
interaction score (4H2944-bA): -0.797
Binder: DKIAQLKQKIAELKQKNAELKWKNAQLKQ [4H2944-bA]

interaction score (P9A): 0.0927
interaction score (P4A): 2.6
interaction score (P3A): -0.882
interaction score (P7A): -0.23
interaction score (P6A): -0.905
interaction score (P8A): -0.435
interaction score (P5A): -0.901
Binder: DEIQQLEEEIAQLEQKNAALKEKNQALKY [P3A]

interaction score (4H2444-bH): 0.0109
interaction score (4H349-bH): 0.108
interaction score (4H56-bH): 0.0558
interaction score (4H235-bH): 0.982
interaction score (4H2585-bH): -1.55
interaction score (4H796-bH): -0.693
interaction score (4H932-bH): -0.443
interaction score (4H3381-bH): 0
interaction score (4H2518-bH): -0.135
interaction score (4H2760-bH): 1.12
interaction score (4H3041-bH): 0.0126
interaction score (4H3297-bH): 0.0762
interaction score (4H264-bH): -0.718
interaction score (4H730-bH): -0.176
interaction score (4H2859-bH): 0.589
interaction score (4H3364-bH): -0.442
interaction score (4H949-bH): -0.845
interaction score (4H2944-bA): -0.835
interaction score (4H2931-bH): -0.301
Binder: DEIQELEKENEELKRKIWELKKENQELER [4H235-bH]

interaction score (O4 [12]): -1.11
interaction score (O9 [13]): -2.25
interaction score (O3 [14]): -1.94
interaction score (O2 [15]): -1.4
interaction score (O15 [16]): -1.64
interaction score (O8 [17]): -2.34
interaction score (O7 [18]): 0.14
interaction score (O16 [19]): 0.545
interaction score (O5 [20]): 0.398
interaction score (O14 [21]): -2.21
interaction score (O6 [22]): 0.213
Binder: DENAALEAEIAALEYENAALEAKIAALKG

Source: article PMC10397247
